Test results reported in doi:10.1101/2020.05.08.084087 (bioRxiv, 2020).
Where a chain is given by its changes, count along the chain named.

Key:
[1] = biological target: T1, ABCB1-YFP P1.008G (Arabidopsis, UniProt Q9ZR72 1-1286, P1.008G); test: FRET or BRET
T1 sequence: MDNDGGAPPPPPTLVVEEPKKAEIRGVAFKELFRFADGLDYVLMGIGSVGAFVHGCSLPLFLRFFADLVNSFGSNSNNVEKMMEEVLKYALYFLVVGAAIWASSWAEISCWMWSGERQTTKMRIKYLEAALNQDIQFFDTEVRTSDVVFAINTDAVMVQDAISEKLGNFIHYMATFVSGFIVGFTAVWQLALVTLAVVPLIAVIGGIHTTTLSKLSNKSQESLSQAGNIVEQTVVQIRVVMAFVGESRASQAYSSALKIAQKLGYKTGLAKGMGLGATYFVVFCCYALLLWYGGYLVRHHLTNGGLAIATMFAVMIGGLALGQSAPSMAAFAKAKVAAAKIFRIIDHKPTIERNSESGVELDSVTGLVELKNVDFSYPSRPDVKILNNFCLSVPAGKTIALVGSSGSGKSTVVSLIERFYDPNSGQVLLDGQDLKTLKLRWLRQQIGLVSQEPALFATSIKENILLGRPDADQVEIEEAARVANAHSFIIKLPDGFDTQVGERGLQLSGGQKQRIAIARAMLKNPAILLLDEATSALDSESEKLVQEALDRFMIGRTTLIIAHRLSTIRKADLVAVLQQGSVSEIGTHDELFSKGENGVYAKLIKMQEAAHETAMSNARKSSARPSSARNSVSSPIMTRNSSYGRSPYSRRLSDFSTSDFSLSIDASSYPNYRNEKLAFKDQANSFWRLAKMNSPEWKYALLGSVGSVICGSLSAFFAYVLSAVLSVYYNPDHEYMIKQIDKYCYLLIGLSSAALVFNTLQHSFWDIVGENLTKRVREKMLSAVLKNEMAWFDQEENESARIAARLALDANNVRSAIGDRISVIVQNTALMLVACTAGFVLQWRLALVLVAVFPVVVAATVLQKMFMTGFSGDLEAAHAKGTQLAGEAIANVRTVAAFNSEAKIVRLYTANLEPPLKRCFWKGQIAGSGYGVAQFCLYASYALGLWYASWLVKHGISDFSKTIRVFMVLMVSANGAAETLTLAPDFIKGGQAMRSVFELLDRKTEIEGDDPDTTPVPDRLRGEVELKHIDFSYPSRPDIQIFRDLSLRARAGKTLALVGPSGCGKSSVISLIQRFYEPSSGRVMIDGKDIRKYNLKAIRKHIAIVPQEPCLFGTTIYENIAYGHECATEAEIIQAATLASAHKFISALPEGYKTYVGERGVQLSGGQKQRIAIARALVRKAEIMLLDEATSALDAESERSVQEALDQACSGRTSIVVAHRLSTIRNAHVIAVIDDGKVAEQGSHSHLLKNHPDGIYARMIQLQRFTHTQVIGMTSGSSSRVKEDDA

[2] = biological target: T2, ABCB1-YFP E1.007A (Arabidopsis, UniProt Q9ZR72 1-1286, E1.007A); test: FRET or BRET
T2 sequence: T1 sequence with E1007A, G1008P

B1: TWD1-Rluc (natural protein)
chain: MDESLEHQTQTHDQESEIVTEGSAVVHSEPSQEGNVPPKVDSEAEVLDEKVSKQIIKEGHGSKPSKYSTCFLHYRAWTKNSQHKFEDTWHEQQPIELVLGKEKKELAGLAIGVASMKSGERALVHVGWELAYGKEGNFSFPNVPPMADLLYEVEVIGFDETKEGKARSDMTVEERIGAADRRKMDGNSLFKEEKLEEAMQQYEMAIAYMGDDFMFQLYGKYQDMALAVKNPCHLNIAACLIKLKRYDEAIGHCNIVLTEEEKNPKALFRRGKAKAELGQMDSARDDFRKAQKYAPDDKAIRRELRALAEQEKALYQKQKEMYKGIFKGKDEGGAKSKSLFWLIVLWQWFVSLFSRIFRRHRVKAD
B1 was tested, and the “reduction of the BRET ratio against Wt ABCB1-YFP” value [1] was about 17% and the “reduction of the BRET ratio against Wt ABCB1-YFP” value [2] was about 39%.
